Among the data in a protein production outcome set (Wang et al. 2014) are protein production values, retold here.

This series in a line: label from the status in PepcDB records.

With “MFMKKWIGIDLGTTNTVASYFDVSSKIILNERGERITPSIVSFSDKDVLVGSAAKNQILVNPQKTFYNFKTNIGSNNFYKVDGEFYKAEYISAHLLASVKRNAEKFLDEEIENAVITVPAYFSEIQRRCVVEAANFAGLNCKAILNEPTAAAIAYAFERQIDGIFLIYDLGGGTFDVTLMEKQGDTYTVLSVKGQSRLGGNDFNKIIEKYVLDSFKNKYPDFNLEDIFLLEQLRERIEEGKKNLSVMEEVDITLLFLDGKHLNYNLKRDEFNSMISEYIDKTIQLSMECIADSGVDISSVSKIILSGGSTRIPLIEKVLKESFPSATILDALNQDEVVAIGAGIHAFSLSRNDSVIKFKDVTPYSLGLEIKDNEFFTLIKRNTALPISRSKLFTTTNDYQDEIEIHILQGEYKKASLNYSIGRFSFGNIQKALKGIPKIEVLFTLNESGILSVNAKDLETNSSNFIEIKITSSSDNVAKESLSNTFTSIID”, the protein production entry is on record as “failed”.

Consider “MFNQLVKVIPNLFTIGNLLCGVFSITLNMSEYLGAASILIFFSAVLDFLDGRIARKLKVNSEFGVELDSLADIVSFGVAPALLFHTIATPSILTSLAFILFPTMGALRLAKFSIKPTIGYFKGLPIPAAGLSLAGMALFSYSNAWITLILALLMVSPIRFKKF”, for which the protein production entry is listed as “not failed”.

With “MFPFENQRLPISALIHKKNHSRLQPHPLFEEQPMKILLIGANGTIGSAVARELEQRHEVVRIGRTSGDFQVDISDSQSIRALFEKTGRFDALVCAAGNVTFAPLGEMTAEHFSLGLEDKLMGQVNLLLIGREYANDGASFTFTTGVLSHDPIRSGASAALVNGAIDSFVRAAAIELPRGLRVNSISPNVLLEAMGSYAPYFRGFKPVPAADVALAYAKSVEGLQTGQTYRVG”, the protein production entry is “failed”.

As for “MFPQRSSELYRTPVTHQPPPALELAGNLEYPNLNIADLNARLENLSPRLHDCWDSIAINDHNHLALATNRREGRQWWGMLFGYGRDQMHHMSVDSANFKLQAEHTVNIVRYAEDDFLLVALGDTRLQAWSTYSKVRDSQSPYCLFLVGESSAHPTPISQLSVFKADPRTAVSGSADSTLNVWDLSGADMVSTYRSRSSHTDKLTGLATPAASVDKFVTCDRGGCARLWDVRAAAPSSTCLYADASHVLSFTSAAWAAASELQGDNHIYLGDYDGKVHTLDIRVPRKLAETREYFDKGHVAQLLINGPHLAAMSNLPASVKVANVQAGHEFIYTHQDTHSRLTDAVWTDDSTLITIGHGRKMVTHAIK”, the protein production entry was “failed”.

In the case of “MFPSRRKAAQLPWEDGRSGLLSGGLPRKCSVFHLFVACLSLGFFSLLWLQLSCSGDVARAVRGQGQETSGPPRACPPEPPPEHWEEDASWGPHRLAVLVPFRERFEELLVFVPHMRRFLSRKKIRHHIYVLNQVDHFRFNRAALINVGFLESSNSTDYIAMHDVDLLPLNEELDYGFPEAGPFHVASPELHPLYHYKTYVGGILLLSKQHYRLCNGMSNRFWGWGREDDEFYRRIKGAGLQLFRPSGITTGYKTFRHLHDPAWRKRDQKRIAAQKQEQFKVDREGGLNTVKYHVASRTALSVGGAPCTVLNIMLDCDKTATPWCTFS”, the protein production result is recorded as “failed”.

Take “MFQIIGIVLLFAMVFGSYIMAGGKMDVIIHAAPHELMAIGGAGVAAFLIGNSVTVIKATLGGFGTIFKGPKWKAQDYRDLLSLLFLLTKTMKSKGVIALEAHIEKPHESTIFSRYPKIAHDHFAVDFICDTLRMMTMNLEDPHQVEDAMEKQLEKHHHEAHGAAHALTQLSDGLPALGIVAAVLGVIKTMGSITEPPAVLGTMIGGALVGTFMGVFMAYGLVGPMATRLGGVLDEDHNFYKIIQAVLVAHLHGNAAQISVEIGRGNVPSAYQPSFAELEEALSQMPNE”: the protein production result was “failed”.

Consider “MFQKIAKECLAGFTVAIVALPLAIAFGIAATGTSEGALVGLYGAIFAGLFAALFGGTPGQVTGPTGPITVIATGVIATHGLEASFIVFMMAGLFQILFGVCKLGSYVRYIPYPVVSGFMNGIALIIILGEMKHVQNSFLLVVLTIIVMIVSGKWIKAIPSSLVALVGVTAMLPLFSSALEGLTVKLPVIGNLSLNKVIEKIGTIPEAMPTLHIPSLSGTGIAELILPALSIALLGSIDSLLTSVVMDNVTGTRHKSNKELVGQGIGNVMSGLFGGLAGAGATVRSIVNIRSGGKTALSASMHSVILFIFIMGLGSVVQYIPLAVLSGILILTGIGMFDWESMKKMHVAPKGDVVVMLVTMIVTVKFDLMIAVAFGIILAFIIYMVKCKERKASIVKEKEAIYKIKGPLSFLTVDRVFYALQDVKSPVVLRMKDTRYMDVSGAMALLNFIEQSGKSGLSVTLEQVPAHIEKILVTMASSEQKDKLLFTEADVMQGNALV”, for which the protein production entry is recorded as “failed”.

Regarding “MFQRKTLQRRNLKGLNLNLHPDVGNNGQLQEKTETHQGQSRIEGHVMSNINAIQNNSNLFLRRGIKKKLTLDAFGDDQAISKPNTVVIQQPQNEPVLVLSSLSQSPCVSSSSSLSTPCIIDAYSNNFGLSPSSTNSTPSTIQGLSNIATPVENEHSISLPPLEESLSPAAADLKDTLSGTSNGNYIQLQDLVQLGKIGAGNSGTVVKALHVPDSKIVAKKTIPVEQNNSTIINQLVRELSIVKNVKPHENIITFYGAYYNQHINNEIIILMEYSDCGSLDKILSVYKRFVQRGTVSSKKTWFNELTISKIAYGVLNGLDHLYRQYKIIHRDIKPSNVLINSKGQIKLCDFGVSKKLINSIADTFVGTSTYMSPERIQGNVYSIKGDVWSLGLMIIELVTGEFPLGGHNDTPDGILDLLQRIVNEPSPRLPKDRIYSKEMTDFVNRCCIKNERERSSIHELLHHDLIMKYVSPSKDDKFRHWCRKIKSKIKEDKRIKREALDRAKLEKKQSERSTH”, the protein production entry was “failed”.

Regarding “MFRDFRMSLLVAVICLGLAAWWGHTSSMGIWQALWLCLVLSVLEVSLSFDNAVVNAGVLKHMNAFWQKLFLTVGILIAVFGMRLVFPIVIVSVATGMGLVPVMQMALKEPDRYSQVLTDNYPSIAAFGGMFLLLVFLNFLFDQERKLHWLGPVERLVGKLGKADAMSVIVAVSVLLGTKLFLPDGIFQSVLFAGLGGILLYLLVGSVDALFEAEESEDGSMGPAKRSGIAAFLYLEVLDASFSFDGVIGAFAITRDVVIIMLGLAIGAMFVRSMTVYLVHKGTLDEFVFLEHGAHYAIGVLAIIMLVGTVYHVPEVLTGLIGVAFIAASVWSSIRYRKRHHIGPTEI”, the protein production result is listed as “failed”.

As to “MFRIKQLAWAMGCVSLMSGCTLYPWYQNKAGQAVNVKPVMEVRHAIRSADALYQLGRYYQAKVDYAEAIAAYEKALEADPRHVEAHNGLGVAHCLLDRHELALQYFRKAIGMAPLAAHLHNNLGYAHLVHGQEAEAVSAFERALLLEPHNQRARRHLAAVYKKAGLHDKAAALTVAPSGAPVGATKAPPTAPIPTPAPGTPAGTPAGIPSAAISAISPPMAAAPGEKQKLSCSAAARLLQVTPGVFEFRMAETEAMTAMPSGKIIGRTAPPQDSGKFSGQDIRIEVSNGNGLPGMARQVSDFLQQNGFARARLTDRQPYQQALTEIHYRPGHSGVAEEISRLMPGGSGVPTVESYNLRRDIHVRVMLGKDAVRQVAHLESPQKVQIAQGTAGAVE”, the protein production entry was “failed”.

Take “MFRPQDDFTYLMPVHFGGGKFDPETLVTQKATALSLSFETERDLLENYIPEGFELLAPEVQVAFNKFTEINWLHGGQYNLINVAAPVRFHGKKDELDGAYTLVVWENKTAPILGGREQTGIPKIYADIEDLHIVRPHFATTVSYEGNTFLNMDFEATGSITGRDLDALKSQFLTMNTLGWRYIPKVGAPGAELSQFVLYPQGMEVETAEVGKGSLKWTELTPMQSPAQYYIVNSLASLPIKRVTQAVLVEGRAILRAMGARVIE”: the protein production result is on record as “not failed”.

On to “MFRQLKKNLVATLIAAMTIGQVAPAFADSADTLPDMGTSAGSTLSIGQEMQMGDYYVRQLRGSAPLINDPLLTQYINSLGMRLVSHANSVKTPFHFFLINNDEINAFAFFGGNVVLHSALFRYSDNESQLASVMAHEISHVTQRHLARAMEDQQRSAPLTWVGALGSILLAMASPQAGMAALTGTLAGTRQGMISFTQQNEQEADRIGIQVLQRSGFDPQAMPTFLEKLLDQARYSSRPPEILLTHPLPESRLADARNRANQMRPMVVQSSEDFYLAKARTLGMYNSGRNQLTSDLLDEWAKGNVRQQRAAQYGRALQAMEANKYDEARKTLQPLLAAEPGNAWYLDLATDIDLGQNKANEAINRLKNARDLRTNPVLQLNLANAYLQGGQPQEAANILNRYTFNNKDDSNGWDLLAQAEAALNNRDQELAARAEGYALAGRLDQAISLLSSASSQVKLGSLQQARYDARIDQLRQLQERFKPYTKMLEHHHHHH”, for which the protein production entry is on record as “not failed”.

As to “MFSFLEKNPFFFTLAFIFVFAIAGLVEILPNFFKSARPIEGLRPYTVLETAGRQIYIQEGCYHCHSQLIRPFQAEVDRYGAYSLSGEYAYDRPFLWGSKRIGPDLHRVGDYRTTDWHEKHMFDPKSVVPHSIMPAYKHLFTKKSDFDTAYAEALTQKKVFGVPYDTENGVKLGSVEEAKKAYLEEAKKITADMKDKRVLEAIERGEVLEIVALIAYLNSLGNSRINANQNAK”, the protein production result is “failed”.

“MFSFVQMTGCLLPLTALTPLSHCTRPRNALALLQSSWKGGSLAISLVRNAVAAVLAAALSVPVSADVGAGSYLAARQAVFANDFSSAADYFARALAIDPQNPALMENMVLSQLALGRLEQAYPVAQLMQEAGLQSQVANIAIVVHLLSEERYQEVLDRDPEMRGVGKLVDGLVAGWAEMGLGSVARALAQFDKVADEAGLRGFANYHKAMALASVGDFEGAEALFAADDGALTTISRRAALARAEILSQLDRNDQALEMLADVFSGGFDPALSDIADRLVAGETLPFSLVRSVRDGLAEVFFTIGAALNGEASDDFTLVYIRSAVHLRPDHIDALLMTAGLLESLGQYDLAVATYKQIPNDSPDYHAAELGRAEALRRSAKPDAAIEVLEKLAKDYPSQPQAFVALGDLQRQQEAYDRAATAYDKALQLTDPGAPNMWFLHYARGICHERLGNWPGAEADFRAALELNPDQPQVLNYLGYSLVEKQEKLDEALDLIERAVAARPDSGYIVDSLGWVLFRLGRYDEAVGHMERAVELMPVDPVVNDHLGDVLWAVGRVREAEFQWRRALSFIKADDTDGEADPERIRRKLEIGLDRVLAEEGVPPLKVANGD”: the protein production result is listed as “failed”.

“MFSIIIPIYNSENYLRYSIESVLNQSIGFKENIELILIDDGSVDSSPQICESFKNLYPNNIKIMKIENSGPSAARNCGLSNVSERSKFIGFLDSDDAFSQNALQSVYDFFCDSEHVNIAVLPVYYTGEKEGGHKLNNRFEKGTRVINILNDYKAIHFYIGGTFYRRHTLTSTVLFDESIKFWEDAIFFNQLLLKEKRYGAVAEGKYFYRKRKEQDSLVDRSWFNKKRYTYLLNECYMTLLMDSFNKYDIVLPYLQFLIVYHIKLFLYPNYRDVYKSVLDQQEQRVFVDDFIKVLKFIDPQFIKEQDMPMYYKEFMFHLLKENTEALENIKKERVLHSSCTVTSAKIKGLRLELTGHFINQYYEMKENDRIYIKYFKRLKKCKRKELKKTIEVWGYKLRDFRYAGFVVEIPIWAFAFDFVLKTPNDSLELNHVNIFKSLLTRVFKKRLEHHHHHH”: the protein production entry is “not failed”.

Turning to “MFSKIFKSFFYSWLATLFSTSLILCICFGNSHPVAIVNAQTPDAYKLVNQGIESYKKGDFHAAIKPWEAALDSYQKNNDFRNIAIINENLARTYQQLGNKSLTLSYWEKVKDYYHSQKNLQKVGRILTEIAQIYSNSGQTKKSYQSFMWCKYINLSNRECITNCPGTTR”, the protein production result is “failed”.

Consider “MFSLSTQTMSAVAQRHPQTPISTITASNRQSSLHFKINSNNPEAHAQMRSGDEKGAIASITIEFQSVEQLHLHLGIMHLLSGDMKGAIEDFNQAILINPNYAEAYKGRGVAKVQLGDEKEAIEDLQKAADIFQEQEETAKYQEVINIIRQINDK”, for which the protein production entry is listed as “failed”.

Take “MFTGFGAASFSAPAKAAAQTNTLSENTNQSAAELVKNLYNTAYKGEMPQQAQGLTINKSTKGDVHAAFGEPERPVGGDNRFDLYHWNMGQPGYGFSYHKDMTISEIRYFGTGVERQLNLGGVTPEVLQKQLGPVNRVLTVPFTDEIDYVYDTGRYELHFVIGTDQTADHVNLKAKLEHHHHHH”: the protein production entry is reported as “not failed”.
